Paper PMC6637015

Columns and labels:
c-Abl [1] = biological target: c-Abl (UniProt P00520); test: streptavidin precipitation of ligated FcRL1, c-Abl blot; conditions: reference: wild type; sites Y281
[2] = biological target: c-Abl SH2 domain, 127-217 (UniProt P00520); test: GST-SH2 pull-down from cell lysate; conditions: reference: wild type; sites Y281
c-Abl [3] = biological target: c-Abl (UniProt P00520); test: GSH-bead precipitation of co-expressed c-Abl–mCherry-GST; conditions: reference: wild type, sites Y281

FcRL1 (Fc receptor-like 1) (from UniProt Q8R4Y0) Y281F
binding against the reference (c-Abl [1]): lost
binding against the reference [2]: lost

FcRL1 (Fc receptor-like 1) (from UniProt Q8R4Y0) Y281F, BCR ligation
binding against the reference (c-Abl [3]; BCR ligation): lost

FcRL1 (Fc receptor-like 1) (from UniProt Q8R4Y0) Y281F, FcRL1 ligation
binding against the reference (c-Abl [3]; FcRL1 ligation): lost
